Experiments:
[1] = test system: N[C@@H](CCSC[C@H](N)C(=O)O)C(=O)O; experiment: steady-state kinetics, Km; type: biochemical, Corynebacterium diphtheriae; settings: PLP; pH 9.0; 30.0 °C
C-S lyase = target: T1, C-S lyase (Corynebacterium diphtheriae, UniProt Q6NFZ9); experiment: fluorescence titration of apoenzyme (emission at […] nm); type: binding
T1 construct: gene aecD; recombinant His-tagged apoenzyme

[2] = target: pyridoxal-5′-phosphate (PLP-) dependent C-S lyase from Corynebacterium diphtheriae (Corynebacterium diphtheriae); experiment: SEC; analytical Superdex 200 HR 10/30, 20 mM sodium phosphate pH 7.2, 150 mM NaCl, 0.1 mL/min; calibrated with mass standards 12.4-669 kDa; apparent mass 85 kDa against about 44 kDa for the subunit
[3] = test system: N[C@@H](CCSC[C@H](N)C(=O)O)C(=O)O; experiment: purified protein; settings: PLP; pH 9.0; 30.0 °C
N[C@@H](CS)C(=O)O = experiment: purified protein; settings: PLP

“C-S lyase (Corynebacterium diphtheriae NCTC 13129; Y114F)” showed a Km [1] of 0.20 ± 0.01 mM and a kcat [1] of 1.2 ± 0.02 s⁻¹.
`Cc1ncc(COP(=O)(O)O)c(C=O)c1O` [PLP, pyridoxal-5′-phosphate] gave a Kd (C-S lyase) of 90 ± 30 nM.
Compound “pyridoxal-5′-phosphate (PLP-) dependent C-S lyase from Corynebacterium diphtheriae (enzyme)” has a stoichiometry N [2] of 2.
“C-S lyase (Corynebacterium diphtheriae NCTC 13129)” gave a Km [3] of 1.07 ± 0.22 mM, a kcat [3] of 92.7 ± 4.44 s⁻¹ and a Km (N[C@@H](CS)C(=O)O) of 0.95 ± 0.18 mM.
